To fix the notation:
B1: NRC3_wobSeed5_DR0_T19A_o1 (dsDNA)
DNA 1: GCCCTTACGGGTCAAGGTAATAGCACGGGTGGTACGGCGATTGACAGCGTAGAATGAAGG
DNA 2: CCTTCATTCTACGCTGTCAATCGCCGTACCACCCGTGCTATTACCTTGACCCGTAAGGGC
B2: NRC3_wobSeed36_DR1_T25C_o1 (dsDNA)
DNA 1: GCCCGACTGGGGCAAAGGTTACCACACTCAGTACGAGCGATTGACAGCGTAGAATGAAGG
DNA 2: CCTTCATTCTACGCTGTCAATCGCTCGTACTGAGTGTGGTAACCTTTGCCCCAGTCGGGC
B3: NRC3_wobSeed130_DR5_T15A_o1 (dsDNA)
DNA 1: GCCTCGAAAGGTCGAGCTCAGGTGAGTATACCAAACGCGATTGACAGCGTAGAATGAAGG
DNA 2: CCTTCATTCTACGCTGTCAATCGCGTTTGGTATACTCACCTGAGCTCGACCTTTCGAGGC
B4: NRC3_wobSeed32_DR1_A25C_o1 (dsDNA)
DNA 1: GCTCTTGTAGATCAAAGGTTAAGACAGCCGAAGCCTGCGATTGACAGCGTAGAATGAAGG
DNA 2: CCTTCATTCTACGCTGTCAATCGCAGGCTTCGGCTGTCTTAACCTTTGATCTACAAGAGC
B5: NRC3_wobSeed117_DR4_G20T_o1 (dsDNA)
DNA 1: GCCGTCAAAGTTCAACTAATGTAACGTAAAGCACGCGCGATTGACAGCGTAGAATGAAGG
DNA 2: CCTTCATTCTACGCTGTCAATCGCGCGTGCTTTACGTTACATTAGTTGAACTTTGACGGC
B6: NRC3_wobSeed2_DR0_T12C_o1 (dsDNA)
DNA 1: GCCCTAGTTGGCCAAGGTCACACACGCTATAGGTACGCGATTGACAGCGTAGAATGAAGG
DNA 2: CCTTCATTCTACGCTGTCAATCGCGTACCTATAGCGTGTGTGACCTTGGCCAACTAGGGC
B7: NRC3_wobSeed47_DR1_T18G_o1 (dsDNA)
DNA 1: GCGGAACGAGGGCAAAGGTGATAGCATCTGTCGACGGCGATTGACAGCGTAGAATGAAGG
DNA 2: CCTTCATTCTACGCTGTCAATCGCCGTCGACAGATGCTATCACCTTTGCCCTCGTTCCGC
B8: NRC3_wobSeed120_DR4_A6C_o1 (dsDNA)
DNA 1: GCCCGCGTAGGTTACGAGGGGGCATTCAGTGCGAATGCGATTGACAGCGTAGAATGAAGG
DNA 2: CCTTCATTCTACGCTGTCAATCGCATTCGCACTGAATGCCCCCTCGTAACCTACGCGGGC
B9: NRC3_wobSeed120_DR4_G20T_o1 (dsDNA)
DNA 1: GCCCGAGTAGGTTACGAGGTGGCATTCAGTGCGAATGCGATTGACAGCGTAGAATGAAGG
DNA 2: CCTTCATTCTACGCTGTCAATCGCATTCGCACTGAATGCCACCTCGTAACCTACTCGGGC
B10: NRC3_wobSeed120_DR4_G21C_o1 (dsDNA)
DNA 1: GCCCGAGTAGGTTACGAGGGCGCATTCAGTGCGAATGCGATTGACAGCGTAGAATGAAGG
DNA 2: CCTTCATTCTACGCTGTCAATCGCATTCGCACTGAATGCGCCCTCGTAACCTACTCGGGC
B11: NRC3_wobSeed58_DR2_A22T_o1 (dsDNA)
DNA 1: GCATCGAAAGGTCGTGAGGTGTGTATACAGAAAGGCGCGATTGACAGCGTAGAATGAAGG
DNA 2: CCTTCATTCTACGCTGTCAATCGCGCCTTTCTGTATACACACCTCACGACCTTTCGATGC
B12: NRC3_wobSeed89_DR3_C22T_o1 (dsDNA)
DNA 1: GCCTATGTAGGTTAAGGGGGTTATTCAGTTTGAAAGGCGATTGACAGCGTAGAATGAAGG
DNA 2: CCTTCATTCTACGCTGTCAATCGCCTTTCAAACTGAATAACCCCCTTAACCTACATAGGC
B13: NRC3_wobSeed93_DR3_A8G_o1 (dsDNA)
DNA 1: GCAGTCAGAGTTCATCTAGGTAACGTAAGATATGCTGCGATTGACAGCGTAGAATGAAGG
DNA 2: CCTTCATTCTACGCTGTCAATCGCAGCATATCTTACGTTACCTAGATGAACTCTGACTGC
B14: NRC3_wobSeed93_DR3_A18T_o1 (dsDNA)
DNA 1: GCAGTCAAAGTTCATCTTGGTAACGTAAGATATGCTGCGATTGACAGCGTAGAATGAAGG
DNA 2: CCTTCATTCTACGCTGTCAATCGCAGCATATCTTACGTTACCAAGATGAACTTTGACTGC
B15: NRC3_wobSeed40_DR1_T15C_o1 (dsDNA)
DNA 1: GCTAGCCTAGGTCACGGGCCAGTATACCACGCGAACGCGATTGACAGCGTAGAATGAAGG
DNA 2: CCTTCATTCTACGCTGTCAATCGCGTTCGCGTGGTATACTGGCCCGTGACCTAGGCTAGC
B16: NRC3_wobSeed40_DR1_A24T_o1 (dsDNA)
DNA 1: GCTAGCCTAGGTCATGGGCCAGTTTACCACGCGAACGCGATTGACAGCGTAGAATGAAGG
DNA 2: CCTTCATTCTACGCTGTCAATCGCGTTCGCGTGGTAAACTGGCCCATGACCTAGGCTAGC
B17: NRC3_wobSeed99_DR4_A24C_o1 (dsDNA)
DNA 1: GCTCTCGGAGGACACGAAAGGTCCGAGCTCGACATCGCGATTGACAGCGTAGAATGAAGG
DNA 2: CCTTCATTCTACGCTGTCAATCGCGATGTCGAGCTCGGACCTTTCGTGTCCTCCGAGAGC
B18: NRC3_wobSeed121_DR5_G21A_o1 (dsDNA)
DNA 1: GCCAAACTAGGTCACCGGAAAGTCAAAGTCCGCATGGCGATTGACAGCGTAGAATGAAGG
DNA 2: CCTTCATTCTACGCTGTCAATCGCCATGCGGACTTTGACTTTCCGGTGACCTAGTTTGGC
B19: NRC3_wobSeed82_DR3_G20T_o1 (dsDNA)
DNA 1: GCATCGAAAGGTCGACGAGTTGAGTATACACCGTTTGCGATTGACAGCGTAGAATGAAGG
DNA 2: CCTTCATTCTACGCTGTCAATCGCAAACGGTGTATACTCAACTCGTCGACCTTTCGATGC
B20: NRC3_wobSeed10_DR0_G6C_o1 (dsDNA)
DNA 1: GCATCCAAAGGTCGAGGTGAGTATAGAGAAAGGGAAGCGATTGACAGCGTAGAATGAAGG
DNA 2: CCTTCATTCTACGCTGTCAATCGCTTCCCTTTCTCTATACTCACCTCGACCTTTGGATGC
B21: NRC3_wobSeed10_DR0_C13A_o1 (dsDNA)
DNA 1: GCATCGAAAGGTAGAGGTGAGTATAGAGAAAGGGAAGCGATTGACAGCGTAGAATGAAGG
DNA 2: CCTTCATTCTACGCTGTCAATCGCTTCCCTTTCTCTATACTCACCTCTACCTTTCGATGC
B22: NRC3_wobSeed124_DR5_C24G_o1 (dsDNA)
DNA 1: GCCCTACTGGGCCATTCAGAGGTGATTGATCATATGGCGATTGACAGCGTAGAATGAAGG
DNA 2: CCTTCATTCTACGCTGTCAATCGCCATATGATCAATCACCTCTGAATGGCCCAGTAGGGC
B23: NRC3_wobSeed6_DR0_T22C_o1 (dsDNA)
DNA 1: GCCCTAGCAGGCCAGGGTCACCCAAGCATTTCGCTTGCGATTGACAGCGTAGAATGAAGG
DNA 2: CCTTCATTCTACGCTGTCAATCGCAAGCGAAATGCTTGGGTGACCCTGGCCTGCTAGGGC
B24: NRC3_wobSeed142_DR5_G13T_o1 (dsDNA)
DNA 1: GCATACCAAGGTTATCGTGAGGTCGTTGATACTAACGCGATTGACAGCGTAGAATGAAGG
DNA 2: CCTTCATTCTACGCTGTCAATCGCGTTAGTATCAACGACCTCACGATAACCTTGGTATGC
B25: NRC3_wobSeed66_DR2_A22C_o1 (dsDNA)
DNA 1: GCAATACAGGGTCACTAGGCCCGAGTAGGTACGAATGCGATTGACAGCGTAGAATGAAGG
DNA 2: CCTTCATTCTACGCTGTCAATCGCATTCGTACCTACTCGGGCCTAGTGACCCTGTATTGC
B26: NRC3_wobSeed66_DR2_G9C_o1 (dsDNA)
DNA 1: GCAATACACGGTCACTAGGCCAGAGTAGGTACGAATGCGATTGACAGCGTAGAATGAAGG
DNA 2: CCTTCATTCTACGCTGTCAATCGCATTCGTACCTACTCTGGCCTAGTGACCGTGTATTGC
B27: NRC3_wobSeed73_DR3_A23G_o1 (dsDNA)
DNA 1: GCCAAACTAGGTCACAGAGGTCGAAGTCCGTGCGTAGCGATTGACAGCGTAGAATGAAGG
DNA 2: CCTTCATTCTACGCTGTCAATCGCTACGCACGGACTTCGACCTCTGTGACCTAGTTTGGC
B28: NRC3_wobSeed136_DR5_T27A_o1 (dsDNA)
DNA 1: GCTAGCCTAGGTCATTCAGGGGCCAGAATAGAAAGCGCGATTGACAGCGTAGAATGAAGG
DNA 2: CCTTCATTCTACGCTGTCAATCGCGCTTTCTATTCTGGCCCCTGAATGACCTAGGCTAGC
B29: NRC3_wobSeed43_DR1_C8A_o1 (dsDNA)
DNA 1: GCCCAGAAAGGTGAAAGGTAACTCAGTCTGGTACGCGCGATTGACAGCGTAGAATGAAGG
DNA 2: CCTTCATTCTACGCTGTCAATCGCGCGTACCAGACTGAGTTACCTTTCACCTTTCTGGGC
B30: NRC3_wobSeed118_DR4_C7A_o1 (dsDNA)
DNA 1: GCTTACAAAGGTGAGCTGAGGTCGTTGATCCAACTCGCGATTGACAGCGTAGAATGAAGG
DNA 2: CCTTCATTCTACGCTGTCAATCGCGAGTTGGATCAACGACCTCAGCTCACCTTTGTAAGC
B31: NRC3_wobSeed137_DR5_T13A_o1 (dsDNA)
DNA 1: GCATATGTAGGTAACATCCGGGTCATTCAGGCTATGGCGATTGACAGCGTAGAATGAAGG
DNA 2: CCTTCATTCTACGCTGTCAATCGCCATAGCCTGAATGACCCGGATGTTACCTACATATGC

RARa:RXRa, sequence (P10276 whole entry, chain 1 of 2): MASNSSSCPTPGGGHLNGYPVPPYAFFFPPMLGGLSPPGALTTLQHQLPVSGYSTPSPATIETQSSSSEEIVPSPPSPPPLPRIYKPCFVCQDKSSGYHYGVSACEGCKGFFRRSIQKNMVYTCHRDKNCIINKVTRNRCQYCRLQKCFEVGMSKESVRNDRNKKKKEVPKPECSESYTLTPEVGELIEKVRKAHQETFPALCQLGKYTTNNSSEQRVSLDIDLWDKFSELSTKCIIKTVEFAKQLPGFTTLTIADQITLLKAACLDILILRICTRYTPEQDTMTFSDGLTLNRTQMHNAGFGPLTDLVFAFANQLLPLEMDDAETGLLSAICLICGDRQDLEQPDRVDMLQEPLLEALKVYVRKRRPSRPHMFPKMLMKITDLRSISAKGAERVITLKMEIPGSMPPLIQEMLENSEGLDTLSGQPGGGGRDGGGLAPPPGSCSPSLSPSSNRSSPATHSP
RARa:RXRa, sequence (P19793 whole entry, chain 2 of 2): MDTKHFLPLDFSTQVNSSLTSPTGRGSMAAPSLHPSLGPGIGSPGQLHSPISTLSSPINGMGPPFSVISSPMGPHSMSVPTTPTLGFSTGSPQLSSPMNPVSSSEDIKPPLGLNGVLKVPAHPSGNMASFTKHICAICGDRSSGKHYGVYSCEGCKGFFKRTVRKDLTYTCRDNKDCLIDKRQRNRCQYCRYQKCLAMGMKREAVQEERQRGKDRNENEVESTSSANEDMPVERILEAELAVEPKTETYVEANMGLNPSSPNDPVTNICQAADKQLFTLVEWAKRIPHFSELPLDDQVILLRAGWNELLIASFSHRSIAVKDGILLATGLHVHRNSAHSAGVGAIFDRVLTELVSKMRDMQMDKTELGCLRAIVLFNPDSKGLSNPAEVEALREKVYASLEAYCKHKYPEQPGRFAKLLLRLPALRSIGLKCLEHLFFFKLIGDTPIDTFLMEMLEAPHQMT

The data set has as its target RARa:RXRa (Homo sapiens, UniProt P10276;P19793 full;full). Briefly: no ligand; PBM; 270 nM : 90 nM RXRa; PBS pH 7.4, 2% milk, 0.02% Triton X-100, 1 mM DTT, BSA, 0.4 mg/ml salmon testes DNA. The note with it: tags: His kept;His cleaved; copies: 1;1; label: surface-attached array probe. The gist of the method: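 Antibodies against each partner of ligand-free nuclear receptor dimers (one per run) detected binding on custom Agilent 4×180K protein-binding microarrays after 1 h incubation. The double-stranded probes had 34-nt variable regions carrying direct-repeat seeds, single-nucleotide variants, half-site ablations and random human genomic background sequences. Binding z-scores, from regression-normalized fluorescence, use the random background probes as reference.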
As for B1, the binding signal is 3.77 PBM z-score against 500 random probes.

On to B2, for which the binding signal was 3.7 PBM z-score against 500 random probes.

Take B3: the binding signal was 3.92 PBM z-score against 500 random probes.

On to B4, for which the binding signal was 3.05 PBM z-score against 500 random probes.

Take B5: the binding signal is 4.13 PBM z-score against 500 random probes.

With B6, the binding signal is 3.86 PBM z-score against 500 random probes.

Take B7: the binding signal was 3.09 PBM z-score against 500 random probes.

As to B8, the binding signal is 3.19 PBM z-score against 500 random probes.

Regarding B9, the binding signal is 0.47 PBM z-score against 500 random probes.

For B10, the binding signal is 0.37 PBM z-score against 500 random probes.

Consider B11, for which the binding signal was 4.09 PBM z-score against 500 random probes.

Take B12: the binding signal is 3.33 PBM z-score against 500 random probes.

In the case of B13, the binding signal was 3.62 PBM z-score against 500 random probes.

On to B14, for which the binding signal was 3.45 PBM z-score against 500 random probes.

Turning to B15, the binding signal is 3.59 PBM z-score against 500 random probes.

Take B16: the binding signal is 3.16 PBM z-score against 500 random probes.

Consider B17, for which the binding signal is 0.41 PBM z-score against 500 random probes.

On to B18, for which the binding signal was 3.41 PBM z-score against 500 random probes.

Turning to B19, the binding signal was 3 PBM z-score against 500 random probes.

Take B20: the binding signal was 3.47 PBM z-score against 500 random probes.

As for B21, the binding signal is 0.4 PBM z-score against 500 random probes.

For B22, the binding signal was 0.45 PBM z-score against 500 random probes.

Turning to B23, the binding signal was 3.89 PBM z-score against 500 random probes.

Regarding B24, the binding signal is 3.65 PBM z-score against 500 random probes.

B25: the binding signal was 3.99 PBM z-score against 500 random probes.

For the molecule B26, the binding signal is 0.46 PBM z-score against 500 random probes.

As for B27, the binding signal is 4.06 PBM z-score against 500 random probes.

Regarding B28, the binding signal was 3.51 PBM z-score against 500 random probes.

Consider B29, for which the binding signal was 3.8 PBM z-score against 500 random probes.

In the case of B30, the binding signal was 3.12 PBM z-score against 500 random probes.

In the case of B31, the binding signal was 3.23 PBM z-score against 500 random probes.

The values are drawn from article PMC6555819, “Comprehensive study of nuclear receptor DNA binding provides a revised framework for understanding receptor specificity”.
